Test: soluble on expression in E. coli; label from the status in PepcDB or PDB records

Soluble on expression in E. coli, not soluble:
DTILCFGDCRPLHKEAKRWAKSKGIRFLAFEEGYLRPQFITVEEGGVNAYSSLPRDPDFYRKLPDMPAPHVENLKPSTMKRIGHAMWYYLMGWHYRHEFPRYRHHKSFSPWYEARCWVRAYWRKQLYKVTQRKVLPRLMNELDQRYYLAVLQVYNDSQIRNHSNYNDVRDYINEVMYSFSRKAPKESYLVIKHHPMDRGHRLYRPLIKRLSKEYGLDERVIYVHDLPMPELLRHAKAVVTINSTAGISALIHNKPLKVMGNALYDIKGLTYQGHLHQFWQADFKPDMKLFKKFRGYLLVKTQVNGGYY, GPGSMTQPSAVVAIGGGLRLLAQPAPTPTADGSSQALTDVFLSEYCAPLQRSSHHLHTHVPRYTVPTPASRRYTPRAGDPVLAIIARKVSQHYYYCYIGGSALAYMDALAFDGATKVSRPRLVEGDVVYCYVKPREGSSYVDGVHRSVASEVFDTTGEVEVSCTAAEVGLPPKDWTSGEAVFGPLQGGRVLHLPLVYVRRLLTPMGSSPEKASAQQRKRDHTEGEGSDGDEVPASYLLQLLGRRVPFEVAVGLNGLVWVRGLSSEADATAAARRTVAVSSCISEAQYDVTRAEMEARVEVYFPS, MALEESLIDLERFCAKAWRVYAKEDPLSHLSFNEFDYLRVIQVFPEGVRITDLADELQVTKPSASNMVVRLEKKGLVKRIACNEDARAKRVLLTEDVAEKMSLEQIVYKDISDQMMLKLNEQEAKQLQSLLNKALGN, MGSDKIHHHHHHWARTVWPRLYWFVEGKLYRWLQSFIAYWGYTAGYDVYEYGDDVTTYYRDERVLMMCNHQSTADVPTLMTVLQNKGVASRKTLWLMDVMFRWTPFGIIGNNHGDYFIQQGKATRDKELIRLKKHLHDVFWDRDRRWVILFPEGGFYYKRVESSQSYGKKNGFPHLLYTTLPRMGAVQAILEEVGPRTEDSDEPRERSNSKLKLLQDTVGAIREKKYVKGE, MPFVRPLVTVVRAGRHSYSAGLQLQQRLARSNQILNPPAEFRNYLVLQEHDPVYTVGLRTKDYTAQDEDRLRRLGADFHRTDRGGLITFHGPGQLVAYPILHLGQFVPSIRWYVATLERMVVEACHQMGISSAKATKDTGIWVGDNKICAIGIHGSRYVTTHGIGLNCCTDLQWFEHIVPCGIEGKGVTSLSKELDRHFPVEEASGALLNSFAKVFECRLQEHAKKPASSAEIG, MGSDKIHHHHHHSCKQAPDAGVKSSYAVMQIEPTDKELSSSYSATIRGRQDIDIYPQVSGTIEKLCVTEGQKVRRGQLLFIIDQVPYRAALKTATANVEAARAATSTAELTYKSNKELYAQKVVSEFSLKTAENSYLTAKAQLAQAEAQEISARNNLSYTEVKSPSDGVVGALPYRAGALVSANIPYPLTTVSDNSDMYVYFSMTENQLLALTRQYGDMDEALKNMPEVELILNDNSVYQKKGTIESISGVIDRQTGTVVARVVFPNESRLLHSGASGTVVVPSIYKNCIAIPQTATVRMQDKTIVYKVVDGKAVSTLITVAGINDGREYVVLDGLKAGDEIVSEGAGLVREGTQVK, MKREQILSLIAEIDDLLNALNMVVKEIEEKKREFSDKEPDQFILRALGSLLHDFYTIIEDIFELISSEMNGVRLDSFDWHKRLLNKMTLEIPGLRPAVISKRLKEMLDEYLRFRHVFRNVYGYLLQWERMKPLLEKAGAVYERFEEEIERFKDFLRELAEKM, MSLKITSISVQQKNKERYNIFIDEKYNFSVDEEVLARYQLMKGKTLTEADIEEIKQADMVRKGLNKAINFLSHRVRSEKEIRDYLRKQEMEPFAVDEILKKLADMDYINDVEFAELYTKTQIKTTLKGPRTIERELVEKGLTREIISQVMEEYASDIQLENATKQAMKIMKRNNKSAKKMLQQKIITDLIQKGYSSEVAKMAAIEATSELDVADEADILQKQVEKTIRKNKRYKPSIAKQKTITSLMQKGFSYDTIQSYLTENEISEGHHHHHH, MKQKIVLATGNKGKVKEMADVLSDFGFEVIAQTDLGIESPEETGLTFVENALLKARYASEKSGLPAIADDSGLVVSALNGAPGLYSARYAGEEGNDAKNREKLLAELAHIAQEQRQAKFVSCIVFLQHPTDPSPIIAEGECCGVIGFEEKGENGFGYDSLFFSPEQGCTFAELETAEKKKISHRAKALSVLKSKL, MKDILGKTFECSCGKTHEVPDIEILETSIREAPDVFSDAFFIADLNTASLVDLPGKRSFVFNERRPLATMENV, MSLDPVGPISDEETSYYVRLQYNGEILPLFTKIEGIEYKKATDIHNPLKASFIAGGGAFGYKMDDIRVDVEGLYSQLNKNDVTGAAFNPDTVADSLTAISGLVNVYYDIAIEDMPITPYVGVGVGAAYISTPLKDAVNDQKSKFGFAGQVKAGVSYDVTPEVKLYAGARYFGSFGAHFDKDTAAASKDKGELKVLYSTVGAEAGVAFNFEGHHHHHH, MGSDKIHHHHHHMEIFDYVILGAGLGGLSAAACLTRQGYRVVVLEQHYLPGGCCHTFDYGEYHFCADVHYISQCGSGQTITQFLDYIHQNVPFNSLDSDCIDRVITPEADFKIPLGWENLRSRLLSTFPEEAGAINHYCNEIQQLHQEIRNLVQEVRWYDQKLSDWLKLPKYLNLFWKRNWTLQDLYNHVGLSPKLQAVLAGQSGDYALPPQEIALLTHTSLVWDYSEGAYYPKHHFKHLVDTIADVITAGGGVIKYSTPVSHIQVSNHSVHSVLADGNSYRASKAYISDLDPKLTVELMHDITALSQKEYKRLTNYQYSASAFNIYLGLDSRFDPQRYGIGNWNVWYYPTGDLNREYQQQLEGDFSQPWIFLSCPTMKSSEPGMGPEGHHVLEIATVCSYEPFEHLYKSNPKAYKAKKREFYQQIMTSVRDLIPDVDKYARMKVYGTPTTSEFYLGQPQGNIYGAKLVPKQVGLNRLGYMTELPNLFLVGASAGYPSVPGVIGNGMQVVELLTGQSVWHKAAERPQSLVAIG, MTEADYGEMVRREKCIMFVKRFCPYSIRARELLHDRGVGCKIIEVDNNLDAYSFAKRNHSTFPVFFLDGDLVEGGCEKLLVLSDSNLPPFDKSPLLTQNREPVLLD, MAHHHHHHMCVRSMDPTKKGNENFPQRNVAIEEANFDSAFPAFNVHYNVEPKDWRHIELVEKEKQDFLLGIKKEIRLMQEDKNKINYVLNVQKQQLEELQFLLNRMKHFRRKSLIAEGEEQLKVDLLAMPRYLRTGTLFSVDTLGEENALRDFNELHNYSVDKSRLTTRGSFYHNLAEQWVG, MSGSDRGDRLYDVLGVTRDATVQEIKTAYRKLALKHHPDKYVDQDSKEVNEIKFKEITAAYEILSDPEKKSHYDLYGDDNGAASSGG, AHHHHHHGSVKHYSVKVITAKSRTRLGLQLADARINELFNMIQDKTLRRDPLLISRRLVPSWATLNSFMLYFGLILAKEEVSISCTLESAT, MKRMLVGCLAAALLFSSGWATAEAKGKQQSKPKWADKNKDGIPDDWELKYKLGLGKNVANQDKDRDGLTNRVEYNLRLNPTKTDTDKDKILDGDEDTDRDGLTNSAEVALGTKPEDADSDNDHVKDGAEKKGKAQLANVVQKLELQMKTAANQTIKIDYHWSDRHSHLHIKDQTGEVTTNDVQSLINDLQASPSLSNDEVIAKIQTLFSLDTPFRLELEWKYGSGRARKLSVKQDEDKGENAGQPGDDQDDDDQGHDQDGHDQNHDQDDDDYDGGNVGGDDGNSSE, MDSDSGEQSEGELSPGHESFNSKSLALQAQKKILSKMATMAVANLLTDDTSSEILDELYKASREYTKSKKEAHKIIKDVIKIALKIGILYRNHQFSPEEMETVERFKKKMNQAAMTVVSFYEVEYTFDRGILSELLLECRDLLHELVEHHLTMRSHGRIDHVFNHFADVDFLTELYGPSEDYRLNLRKICDGINKLLDEGTL, MLPPYNYMDNGTLKGISIDLLEAITEKMGKKVTREEIHLVSWTEGYQAALTRNNTVLFVTARTPEREQSFKWVGPIYSDKYVLFAKRDPGVTIDGPEDLKEYRIGVISDDVAAQQLLNIGVNQSQLEHHHHHH, MGSDKIHHHHHHMSLKDYDAARLAQVREEVTAKYAELKAKNLSLDLTRGKPSAEQLDLSNDLLSLPGGDFRTKDGVDCRNYGGLLGIADIRELWAEALGLPADLVVAQDGSSLNIMFDLISWSYTWGNNDSSRPWSAEEKVKWLCPVPGYDRHFTITEHFGFEMINVPMTDEGPDMGVVRELVKDPQVKGMWTVPVFGNPTGVTFSEQTCRELAEMSTAAPDFRIVWDNAYALHTLSDEFPIVHNVIEFAQAAGNPNRFWFMSSTSKITHAGSGVSFFASSKENIEWYASHANVRGIGPNKLNQLAHAQFFGDVAGLKAHMLKHAASLAPKFERVLEILDSRLSEYGVAKWTSPTGGYFISVDVVPGTASRVVELAKEAGIALTGAGSSFPLHNDPNNENIRLAPSLPPVAELEVAMDGFATCVLMAALEV, MLPETTTLQPLPSVTTIMNEPPARSPMEDYYLFNQFQYNQNPYVYPPQPVYYNTWQDASTHHFDPFQSYQIPSPYEQPIQSSMCTTPLQPLEDSRIIFDESLTKNENEQKSFVEQDSSYESSGNRFGSQKGKKIAKVIRDACCSHCSTTTTTLWRKNDEGNLECNACNLYYRHNKVKRPLSLCKQKPTTRKRRQAKKE

Soluble on expression in E. coli, soluble:
MAHHHHHHMIAAIKTPAFQERVRAAMSREPTPADAEAVMKRYEEVQADYFTNHYNAEAGGICSSASAGAESRGTGGAGGRAKSSQDASEALAQQVDDMNLQEASDAPKLDGVEIVEQLKNAVRVYKEKETVRLITELCLLIESQVTALPATVPALRHLYSNSVYGSSAMEHAQAASAQAGGGESVLPVAQPSPQVMSMMGMAMRTLNPRQRETLERVQRAMMNGSPPLPEDMQDMLLIQRQLGAFMQTMQRFGQMPSGRGCGSGGRGGCGGQGGQ, GGGGGGMNLRRRGIVVSFHSNMVTVEDEETGERILCKLRGKFRLQNLKIYVGDRVEYTPDETGSGVIENVLHRKNLLTKPHVANVDQVILVVTVKMPETSTYIIDKFLVLAEKNELETVMVINKMDLYDEDDLRKVRELEEIYSGLYPIVKTSAKTGMGIEELKEYLKGKISTMAGLSGVGKSSLLNAINPGLKLRVSEVSEKLQRGRHTTTTAQLLKFDFGGYVVDTPGFANLEINDIEPEELKHYFKEFGDKQCFFSDCNHVDEPECGVKEAVENGEIAESRYENYVKMFYELLGRRKK, METSETDSTGNTQTCETRQTRSNSWTAWGIHAISTITDGAKQLYTKALGLDELEEKKLEDEEGVTHVEVDEKTKRDLWNQLSTLVGADVINMRLSLPVWLFEPTTALQRMCETLQFHQLLDMAATCEEPVERDALVAAFTVSAFAHTERVYKPFNPVLGETFEWTSRDGTTRVLCEQVSHHPPVSVSYTEGPGWVAQEVFSCNAYFLGNSVEIRNTGSRYVYLTSFDERYEWTLPVSAAQNLFVGGSFIDHYGELILRSSPRGSVTSLTFTKCGWFGRGRYAVNGDIVDADGYRVMELSGEWNRGLVGFRLDKSSGERVDAKSLWYAGEHKPAVKRDKYNFTNFTYELLEVPDNAESIIPPTDSRFRPDRRALEGNNLSLANLEKVRVENIQRERENQRQKTGTTYVPAWFYQDDNNEWHFGGKYWKETRNMSEDQKEQMKLW, MAHHHHHHMQSVLPYTTNPAQIGSIEKLKLINPSSAAATGPYVNVRDPKLVVGGLLHNWDAEAAHALLNAPKSVQTWDLSWTEDETNWEERVHRCTYPEEVEDLLPAKWIGYRVQSDVDETLARVCKLCTALVDRLVSLSQGNNANVSTAKWRQRQALYDRLGAVMELLEASVGEAIPILKLKDPEFIQNCWRQMQDDERVEIISVLGTKEYD

From the DeepSol protein solubility set
